Source: patent publication US20120316071A1 (published 2012)
Each block holds one binder with its values, some of them ahead of it.

Tests used:
[1] = target: T1, Recombinant Human DLL4 (R&D Systems Cat#1506-D4/CF) (human, UniProt Q9NR61 27-524); experiment: ELISA and 96-well plate ECL
T1 construct: bought recombinant protein; also called rHuman DLL4; delta-like protein 4

[2] = target: T2, rHuman EGF R/Fc Chimera, CF (R&D Systems Cat#344-ER) (human, UniProt P00533 25-645); experiment: ECL multispot (MSD) binding assay, antigen spotted on plate, Fab 0.04 uM;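 note: purified Fab incubated 1 h at 20 °C on antigen spots, detected via TAG-labelled antibody, ECL read against each well's blank, with signal-to-blank of at least 4 scored as binder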
T2 construct: Bought recombinant protein; also called epidermal growth factor receptor; Fc part of the bought chimera not given

[3] = target: T3, rHuman Notch-1/Fc Chimera, CF (R&D Systems Cat#3647-TK) (human, UniProt P46531 19-526); experiment: as above
T3 construct: Bought recombinant protein; Fc part of the bought chimera not given

[4] = target: T4, Recombinant Human DLL4 (R&D Systems Cat#1506-D4/CF) (human, UniProt Q9NR61 27-524); experiment: as above
T4 construct: Bought recombinant protein; also called delta-like protein 4; rHuman DLL4

[5] = target: T5, rHuman Erythropoietin R/Fc Chimera, CF (R&D Systems Cat#963-ER) (human, UniProt P19235 25-250); experiment: as above
T5 construct: Bought recombinant protein; also called EPO R; EPO R/Fc; Fc part of the bought chimera not given
T5 sequence (looked up): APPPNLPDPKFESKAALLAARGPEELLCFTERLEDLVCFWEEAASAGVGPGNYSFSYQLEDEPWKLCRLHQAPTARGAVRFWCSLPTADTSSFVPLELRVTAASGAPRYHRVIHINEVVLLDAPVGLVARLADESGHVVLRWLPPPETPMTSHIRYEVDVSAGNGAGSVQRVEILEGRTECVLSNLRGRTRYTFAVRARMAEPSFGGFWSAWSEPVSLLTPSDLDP

[6] = target: T6, rHuman CD44/Fc Chimera, CF (R&D Systems Cat#3660-CD) (human, UniProt P16070 21-220); experiment: as above
T6 construct: Bought recombinant protein; Fc part of the bought chimera not given

[7] = target: T7, rHuman ErbB2/Fc Chimera, CF (R&D Systems Cat#1129-ER) (human, UniProt P04626 23-652); experiment: as above
T7 construct: Bought recombinant protein; also called human epidermal growth factor 2 receptor; Fc part of the bought chimera not given

[8] = target: T8, rHuman HGF R/c-MET/Fc Chimera, CF (R&D Systems Cat#358-MT/CF) (human, UniProt P08581 25-932); experiment: as above
T8 construct: Bought recombinant protein; also called HGF R/Fc; hepatocyte growth factor receptor; Fc part of the bought chimera not given
T8 sequence (P08581 25-932, change not shown): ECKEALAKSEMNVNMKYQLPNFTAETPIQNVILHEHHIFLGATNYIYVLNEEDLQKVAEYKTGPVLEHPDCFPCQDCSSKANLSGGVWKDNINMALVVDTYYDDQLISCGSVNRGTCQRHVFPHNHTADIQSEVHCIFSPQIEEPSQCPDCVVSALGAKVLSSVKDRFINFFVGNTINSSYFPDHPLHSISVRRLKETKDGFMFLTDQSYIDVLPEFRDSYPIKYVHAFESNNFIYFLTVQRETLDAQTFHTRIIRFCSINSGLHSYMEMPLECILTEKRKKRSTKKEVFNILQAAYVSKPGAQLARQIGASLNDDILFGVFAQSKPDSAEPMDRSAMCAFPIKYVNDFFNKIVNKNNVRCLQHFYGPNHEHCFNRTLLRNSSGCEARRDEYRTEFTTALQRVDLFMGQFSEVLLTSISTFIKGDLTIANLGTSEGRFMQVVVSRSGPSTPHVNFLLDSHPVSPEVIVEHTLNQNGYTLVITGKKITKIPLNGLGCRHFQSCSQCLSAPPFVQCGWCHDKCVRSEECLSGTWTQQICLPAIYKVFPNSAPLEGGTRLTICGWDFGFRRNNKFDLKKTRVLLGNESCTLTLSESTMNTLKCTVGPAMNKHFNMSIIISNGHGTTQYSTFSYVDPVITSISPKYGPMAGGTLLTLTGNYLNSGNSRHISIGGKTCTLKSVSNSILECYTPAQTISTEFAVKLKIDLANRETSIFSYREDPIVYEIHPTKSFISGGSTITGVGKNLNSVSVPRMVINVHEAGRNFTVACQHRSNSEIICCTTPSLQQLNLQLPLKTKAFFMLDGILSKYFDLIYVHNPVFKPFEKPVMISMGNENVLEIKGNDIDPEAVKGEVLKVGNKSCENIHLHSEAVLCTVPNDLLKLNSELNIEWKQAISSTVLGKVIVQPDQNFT

[9] = target: T9, rHuman P-Cadherin/Fc Chimera, CF (R&D Systems Cat#861-PC) (human, UniProt P22223 108-654); experiment: as above
T9 construct: Bought recombinant protein; Fc part of the bought chimera not given

[10] = target: T10, Recombinant Human DLL4 (delta-like protein 4) (human, UniProt Q9NR61 27-524); experiment: ELISA, Fab on plate-coated recombinant human DLL4
T10 construct: also called rHuman DLL4; Delta-like 4

[11] = target: T11, Recombinant Human DLL4 (delta-like protein 4) (human, UniProt Q9NR61 27-524); experiment: SPR, Fab on recombinant human DLL4; column head x10^5 applied
T11 construct: Bought recombinant protein; also called rHuman DLL4; Delta-like 4

[12] = target: T11, Recombinant Human DLL4 (delta-like …); experiment: SPR, Fab on recombinant human DLL4; column head x10^-3 applied
[13] = target: T11, Recombinant Human DLL4 (delta-like …); experiment: SPR, Fab on recombinant human DLL4
[14] = target: T12, rHuman Notch-1/Fc Chimera, CF (human, UniProt P46531 19-526); experiment: ECL multispot (MSD) binding assay, antigen spotted on plate, 100 nM Fab
T12 construct: Bought protein; Fc part of the bought chimera not given

[15] = target: T13, rHuman CD44/Fc Chimera, CF (human, UniProt P16070 21-220); experiment: as above
T13 construct: Bought protein; Fc part of the bought chimera not given

[16] = target: T14, rHuman Erythropoietin R/Fc Chimera, CF (human, UniProt P19235 25-250); experiment: as above
T14 construct: Bought protein; also called EPO R; EPO R/Fc; Fc part of the bought chimera not given
T14 sequence (looked up): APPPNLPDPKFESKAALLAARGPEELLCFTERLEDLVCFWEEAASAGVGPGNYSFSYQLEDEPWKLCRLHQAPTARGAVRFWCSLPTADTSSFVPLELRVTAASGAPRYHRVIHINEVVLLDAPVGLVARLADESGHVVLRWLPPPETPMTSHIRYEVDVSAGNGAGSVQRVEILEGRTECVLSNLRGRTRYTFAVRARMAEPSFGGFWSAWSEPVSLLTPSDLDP

[17] = target: T15, rHuman IGF-1 sR, (IGF-1 sR), CF (human, UniProt P08069 31-932); experiment: as above
T15 construct: The column head prints 'IGF-1'; The antigen panel of the assay holds the soluble IGF-1 receptor, not the ligand; also called insulin-like growth factor-1 soluble receptor

[18] = target: T16, rHuman P-Cadherin/Fc Chimera, CF (human, UniProt P22223 108-654); experiment: as above
T16 construct: Bought protein; Fc part of the bought chimera not given

[19] = target: T17, rHuman EGF R/Fc Chimera, CF (human, UniProt P00533 25-645); experiment: as above
T17 construct: Bought protein; also called epidermal growth factor receptor; Fc part of the bought chimera not given

[20] = target: T18, rHuman ErbB2/Fc Chimera, CF (human, UniProt P04626 23-652); experiment: as above
T18 construct: Bought protein; also called human epidermal growth factor 2 receptor; Fc part of the bought chimera not given

B1: Fab VH1-46_IGHD6-6*01_IGHJ1*01 S102A/S103P/S104F/H111F (H:APFF) & L6_IGKJ1*01 S28N/S30D/S31H (L:NDH) (Fab, V domains shown)
VH: QVQLVQSGAEVKKPGASVKVSCKASGYTFTSYYMHWVRQAPGQGLEWMGIINPSGGSTSYAQKFQGRVTMTRDTSTSTVYMELSSLRSEDTAVYYCAREEYAPFSAEYFQFWGQGTLVTVSS
VL: EIVLTQSPATLSLSPGERATLSCRASQNVDHYLAWYQQKPGQAPRLLIYDASNRATGIPARFSGSGSGTDFTLTISSLEPEDFAVYYCQQRSNWPPWTFGQGTKVEIKR
notes: Fab; also called H:APFF & L:NDH; APFF-NDH
fold affinity against the parent antibody APFF mutant [1]: 4 fold

B2: Fab VH1-46_IGHD6-6*01_IGHJ1*01 S102A/S103P/S104F/H111F/G56A (H:APFF G56A) & L6_IGKJ1*01 S28N/S30D/S31H (L:NDH) (Fab, V domains shown)
VH: QVQLVQSGAEVKKPGASVKVSCKASGYTFTSYYMHWVRQAPGQGLEWMGIINPSGASTSYAQKFQGRVTMTRDTSTSTVYMELSSLRSEDTAVYYCAREEYAPFSAEYFQFWGQGTLVTVSS
VL: EIVLTQSPATLSLSPGERATLSCRASQNVDHYLAWYQQKPGQAPRLLIYDASNRATGIPARFSGSGSGTDFTLTISSLEPEDFAVYYCQQRSNWPPWTFGQGTKVEIKR
notes: Fab; also called H:APFF G56A & L:NDH
fold affinity against the H:APFF & L:wt parental antibody mutant [1]: 8 fold

B3: Fab VH5-51_IGHD5-18*01>3_IGHJ4*01 G100K/G104T (H:KT) & V3-4_IGLJ1*01 V91A (Fab, V domains shown)
VH: EVQLVQSGAEVKKPGESLKISCKGSGYSFTSYWIGWVRQMPGKGLEWMGIIYPGDSDTRYSPSFQGQVTISADKSISTAYLQWSSLKASDTAMYYCARRKYSYTYDYFDYWGQGTLVTVSS
VL: QTVVTQEPSFSVSPGGTVTLTCGLSSGSVSTSYYPSWYQQTPGQAPRTLIYSTNTRSSGVPDRFSGSILGNKAALTITGAQADDESDYYCALYMGSGISYVFGTGTKVTVL
notes: Fab; Expressed from Plasmid A (CH1, His6 and Flag tags) and Plasmid E (lambda CL); also called KT & V91A
ECL signal [2]: 833 | ECL signal [3]: 682 | ECL signal [4]: 33400 | ECL signal [5]: 675 | ECL signal [6]: 632 | ECL signal [7]: 1120 | ECL signal [8]: 1110 | ECL signal [9]: 484

B5: Fab VH5-51_IGHD5-18*01>3_IGHJ4*01 G100K/G104T G24T/S28R/G35V & V3-4_IGLJ1*01 V91L/S96P S52G (Fab, V domains shown)
VH: EVQLVQSGAEVKKPGESLKISCKTSGYRFTSYWIVWVRQMPGKGLEWMGIIYPGDSDTRYSPSFQGQVTISADKSISTAYLQWSSLKASDTAMYYCARRKYSYTYDYFDYWGQGTLVTVSS
VL: QTVVTQEPSFSVSPGGTVTLTCGLSSGSVSTSYYPSWYQQTPGQAPRTLIYGTNTRSSGVPDRFSGSILGNKAALTITGAQADDESDYYCLLYMGPGISYVFGTGTKVTVL
notes: Fab made in E. coli; VH was cloned in Plasmid A (CH1, His6 and Flag tags) and VL in Plasmid E (lambda CL); also called H:KT TRV & L:LP S52G
kon [11]: 2.96e+06 M⁻¹ s⁻¹ | koff [12]: 0.0147 s⁻¹ | Kd [13]: 5 nM

B7: Fab VH3-23_IGHD2-21*01>3_IGHJ6*01 I107A & V2-13_IGLJ2*01 (Fab, V domains shown)
VH: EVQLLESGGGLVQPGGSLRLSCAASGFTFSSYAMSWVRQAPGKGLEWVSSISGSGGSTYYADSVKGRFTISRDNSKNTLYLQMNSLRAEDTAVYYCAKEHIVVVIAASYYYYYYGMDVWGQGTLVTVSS
VL: SSELTQDPAVSVALGQTVRITCQGDSLRSYYASWYQQKPGQAPVLVIYGKNNRPSGIPDRFSGSSSGNTASLTITGAQAEDEADYYCNSRDSSGNHLVVFGGGTKLTVL
notes: Tested as a Fab made in E. coli
ECL signal/blank ratio (quantity not given) [14]: 2.7 | ECL signal/blank ratio (quantity not given) [15]: 1.5 | ECL signal/blank ratio (quantity not given) [16]: 43.6 | ECL signal/blank ratio (quantity not given) [17]: 1.1 | ECL signal/blank ratio (quantity not given) [18]: 19.6 | ECL signal/blank ratio (quantity not given) [19]: 4.3 | ECL signal/blank ratio (quantity not given) [20]: 4.8

Next, values leading:

ELISA signal [10]: 0.1
B4: Fab VH5-51_IGHD5-18*01>3_IGHJ4*01 G100K/G104T (H:KT) & V3-4_IGLJ1*01 G23L (Fab, V domains shown)
VH: EVQLVQSGAEVKKPGESLKISCKGSGYSFTSYWIGWVRQMPGKGLEWMGIIYPGDSDTRYSPSFQGQVTISADKSISTAYLQWSSLKASDTAMYYCARRKYSYTYDYFDYWGQGTLVTVSS
VL: QTVVTQEPSFSVSPGGTVTLTCLLSSGSVSTSYYPSWYQQTPGQAPRTLIYSTNTRSSGVPDRFSGSILGNKAALTITGAQADDESDYYCVLYMGSGISYVFGTGTKVTVL
notes: Fab (CH1 with His6/Flag tags from Plasmid A, lambda CL from Plasmid E); also called G100K/G104T & G23L

kon [11]: 1.1e+07 M⁻¹ s⁻¹ | koff [12]: 0.036 s⁻¹ | Kd [13]: 3.3 nM
B6: Fab VH5-51_IGHD5-18*01>3_IGHJ4*01 G100K/G104T G24T/S28R/G35V & V3-4_IGLJ1*01 V91L/S96P (Fab, V domains shown)
VH: EVQLVQSGAEVKKPGESLKISCKTSGYRFTSYWIVWVRQMPGKGLEWMGIIYPGDSDTRYSPSFQGQVTISADKSISTAYLQWSSLKASDTAMYYCARRKYSYTYDYFDYWGQGTLVTVSS
VL: QTVVTQEPSFSVSPGGTVTLTCGLSSGSVSTSYYPSWYQQTPGQAPRTLIYSTNTRSSGVPDRFSGSILGNKAALTITGAQADDESDYYCLLYMGPGISYVFGTGTKVTVL
notes: Fab made in E. coli; VH was cloned in Plasmid A (CH1, His6 and Flag tags) and VL in Plasmid E (lambda CL); also called H:KT TRV & L:LP

ECL signal/blank ratio (quantity not given) [14]: 1.5 | ECL signal/blank ratio (quantity not given) [15]: 1.3 | ECL signal/blank ratio (quantity not given) [16]: 9.5 | ECL signal/blank ratio (quantity not given) [17]: 1.2 | ECL signal/blank ratio (quantity not given) [18]: 4.8 | ECL signal/blank ratio (quantity not given) [19]: 2 | ECL signal/blank ratio (quantity not given) [20]: 1.9
B8: Fab VH3-23_IGHD2-21*01>3_IGHJ6*01 S108A & V2-13_IGLJ2*01 (Fab, V domains shown)
VH: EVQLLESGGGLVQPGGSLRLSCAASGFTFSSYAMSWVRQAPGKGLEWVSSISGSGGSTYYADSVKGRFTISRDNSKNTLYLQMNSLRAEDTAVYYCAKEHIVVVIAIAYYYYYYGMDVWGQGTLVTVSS
VL: SSELTQDPAVSVALGQTVRITCQGDSLRSYYASWYQQKPGQAPVLVIYGKNNRPSGIPDRFSGSSSGNTASLTITGAQAEDEADYYCNSRDSSGNHLVVFGGGTKLTVL
notes: as for B7
